Molecular target: PAF1c (Polymerase II associated factor 1 complex; CTR9, Leo1, Paf1, CDC73, WDR61) (UniProt Q6PD62;Q8WVC0;Q8N7H5;Q6P1J9;Q9GZS3)
Experiment: pull-down

binding result: binds
B1: GST-MYC^1-163 (glutathione-S-transferase fusion protein that encompasses amino acids 1 to 163 of human MYC) (domain or fragment)
chain: MPLNVSFTNRNYDLDYDSVQPYFYCDEEENFYQQQQQSELQPPAPSEDIWKKFELLPTPPLSPSRRSGLCSPSYVAVTPFSLRGDNDGGGGSFSTADQLEMVTELLGGDMVNQSFICDPDDETFIKNIIIQDCMWSGFSAAAKLVSEKLASYQAARKDSGSPN
